From PMC6811359 come the findings set out here.

Experiment [1] has as its target PAL, light-oxygen-voltage (LOV) receptor from Nakamurella multipartita (Nakamurella multipartita). The experiment in a line: SEC. (In gel filtration, larger molecules generally elute earlier.)
For experiment [2] the target is unchanged. The experiment in a line: SEC-MALS.
Experiment [3] has as its target isolated LOV domain of PAL (Nakamurella multipartita). The experiment in a line: SEC.
Experiment [4] has the same target. Put plainly: SEC-MALS.

One may read the stoichiometry N as a count of units in the complex or per binding partner. Consider “PAL, light-oxygen-voltage (LOV) receptor from Nakamurella multipartita (natural protein)”, for which the stoichiometry N in experiment [1] and in experiment [2] was 2 each time.
For the substance “isolated LOV domain of PAL (domain or fragment)”, the stoichiometry N in experiment [3] and in experiment [4] was 2 each time.
